IntAct's records for PubMed 23468591

B1: IkB-like protein (African swine fever virus (isolate Tick/Malawi/Lil 20-1/1983)), O36972 (parent)
chain: MDTIGLFSVEAEHLFVEWVKKCIKKGDLTLFETLFNADPWIVNRCNKNKITVFMLICIYGRLDFLRFLFKQESYPGEIVNHYRRDKDGNSAWHYLAEKNNHLLLEEVLDYFGKNGIRVCFPNFNGVTPIMKAAMRGRTLSVLSLLKYGANPNRKDYLKGFTTWDWAVFTGHADLVKTLNKGYQKPLFMHFPLYKLDVFHRRFKKKPKIIITGCEDNVYEKLPEQNSNFLCVKKLNKYGK

Variants of: B1
Conditions: with PPP3CA

Variant | effect of a mutation on the interaction
F228A;L229A;V231A;K232A | disrupting interaction strength
